IntAct's records for PubMed 16407301

B1: Mitogen-activated protein kinase kinase kinase 3 (Homo sapiens), Q99759 (parent)
chain: MDEQEALNSIMNDLVALQMNRRHRMPGYETMKNKDTGHSNRQSDVRIKFEHNGERRIIAFSRPVKYEDVEHKVTTVFGQPLDLHYMNNELSILLKNQDDLDKAIDILDRSSSMKSLRILLLSQDRNHNSSSPHSGVSRQVRIKASQSAGDINTIYQPPEPRSRHLSVSSQNPGRSSPPPGYVPERQQHIARQGSYTSINSEGEFIPETSEQCMLDPLSSAENSLSGSCQSLDRSADSPSFRKSRMSRAQSFPDNRQEYSDRETQLYDKGVKGGTYPRRYHVSVHHKDYSDGRRTFPRIRRHQGNLFTLVPSSRSLSTNGENMGLAVQYLDPRGRLRSADSENALSVQERNVPTKSPSAPINWRRGKLLGQGAFGRVYLCYDVDTGRELASKQVQFDPDSPETSKEVSALECEIQLLKNLQHERIVQYYGCLRDRAEKTLTIFMEYMPGGSVKDQLKAYGALTESVTRKYTRQILEGMSYLHSNMIVHRDIKGANILRDSAGNVKLGDFGASKRLQTICMSGTGMRSVTGTPYWMSPEVISGEGYGRKADVWSLGCTVVEMLTEKPPWAEYEAMAAIFKIATQPTNPQLPSHISEHGRDFLRRIFVEARQRPSAEELLTHHFAQLMY

Variants of: B1
Conditions: with mk03_human MAPK3, P27361
Sequence of mk03_human MAPK3, P27361 (P27361 whole entry): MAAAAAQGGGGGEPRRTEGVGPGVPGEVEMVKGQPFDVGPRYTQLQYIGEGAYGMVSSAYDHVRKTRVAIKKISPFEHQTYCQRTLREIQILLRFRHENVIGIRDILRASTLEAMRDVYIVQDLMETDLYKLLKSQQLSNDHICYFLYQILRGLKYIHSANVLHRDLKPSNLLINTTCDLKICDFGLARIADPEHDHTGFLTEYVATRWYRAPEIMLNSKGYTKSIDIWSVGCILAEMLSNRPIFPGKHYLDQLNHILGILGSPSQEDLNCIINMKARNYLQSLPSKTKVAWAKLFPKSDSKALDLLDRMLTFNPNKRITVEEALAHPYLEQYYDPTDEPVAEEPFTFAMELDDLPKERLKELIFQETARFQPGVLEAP

Effect of a mutation on the interaction, disrupting interaction:
S526A
K391M
T530A
